The data set has as its target Human Galectin-3 protein (Acro Biosystems, GA3-H5129). In words: blocking ELISA (Gal3 coated; antibody 3 µg/mL + INSR). In general terms: In an ELISA, binding on a coated surface is turned into a signal by an enzyme label.

B1: 15G7.2A7 (protein)
chain 1: EVQLQQSGPELVKPGASVKISCKASGYTFTDYYMNWVKQSHGKSLEWIGDINPNNGGTNYNQKFKGKATLTVDKSSSTAYMELRSLTSEDSAVYYCTSGYGFPYWGQGTLVTVSA
chain 2: DIQMNQSPSSLSASLGDTISITCRASQNINIWLSWYQQKPGNIPQLLIYKASNLHTGVPSRFSGSGSGTDFTLTISSLQPEDIATYYCLQGQSYPLTFGAGTKLVMK
Take B1: the “reduction of Gal3-INSR assembly (%)” value was “reduced assembly of Gal3 and INSR by greater than 99% at 3 µg/mL”.
